# Laboratory results from US12404607.
# Columns and labels:
# [1] = target: SARS CoV-2 Spike RBD protein of the Spike:ACE2 blocking ELISA (BPS Bioscience) (SARS-CoV-2) (UniProt P0DTC2); experiment: competition ELISA: RBD coated, test article, then ACE2-His (competitor)
# [2] = target: SARS-CoV-2 spike on GFP reporter pseudotype virus (Integral Molecular) (SARS-CoV-2) (UniProt P0DTC2); experiment: cell-based or functional assay
# [3] = target: SARS-CoV-2 spike S1 antigen (SARS-CoV-2) (UniProt P0DTC2); experiment: ELISA, coated S1
# [4] = target: SARS-CoV-2 spike receptor binding domain (RBD) antigen (SARS-CoV-2) (UniProt P0DTC2); experiment: ELISA, coated RBD
# [5] = target: SARS CoV RBD (SARS-CoV) (UniProt P59594); experiment: ELISA, antigen coated at 2 ug/mL
substance,measurement,setting,value
SARS CoV-2 mAb [SAD-S35] (Acro Biosystems) (antibody),IC50,[1],1.1 µg/mL
same,CoV-2 pseudotype neutralization IC50,[2],0.26 µg/mL
same,EC50,[3],0.058 µg/mL
same,EC50,[4],0.057 µg/mL
SARS CoV mAb [CR3022] (Absolute Antibody),CoV-2 pseudotype neutralization IC50,[2],100 µg/mL
same,EC50,[3],0.078 µg/mL
same,EC50,[4],0.088 µg/mL
rCIG (recombinant coronavirus-2 immune globulin; recombinant anti-coronavirus 19 hyperimmune gammaglobulin),IC50,[1],2.2 µg/mL
same,CoV-2 pseudotype neutralization IC50,[2],0.43 µg/mL
same,EC50,[3],0.092 µg/mL
same,EC50,[4],0.1 µg/mL
same,EC50,[5],0.6 µg/mL
